Biological target: SPPV14ΔC31 (sheeppoxvirus SPPV14 residues 1-145, 31 residue C-terminal deletion) (sheeppoxvirus)
Test: ITC

For Bad BH3 motif peptide (human), the Kd was 5200 nM.

Work on Bax BH3 motif peptide (human, 28-mer) yielded a Kd of 26 nM.

Hrk BH3 motif peptide (human, 26-mer) was tested, and the Kd was 39 nM.

B1: Bok BH3 motif peptide (human, residues 59-84) (peptide)
peptide: VPGRLAEVCAVLLRLGDELEMIRPSV
B1 showed a Kd of 7600 nM.

— doi:10.1101/2020.03.10.986331
